Measurements reported in patent US20110243927A1.

Molecular target: β5 integrin (human, ITGB5) (human)
Test: cell-based or functional assay

% Inhibition of cell growth, SKBr3 cells, SRB assay, 5 days, antibody alone at 0.08 µg/ml (trastuzumab 0): 30%
% Inhibition of cell growth, SKBr3 cells, SRB assay, 5 days, antibody alone at 0.4 µg/ml (trastuzumab 0): 43.7%
% Inhibition of cell growth, SKBr3 cells, SRB assay, 5 days, antibody alone at 2 µg/ml (trastuzumab 0): 52.6%
% Inhibition of cell growth, SKBr3 cells, SRB assay, 5 days, antibody alone at 10 µg/ml (trastuzumab 0): 71.5%
% Inhibition of cell growth, SKBr3 cells, SRB assay, 5 days, antibody alone at 50 µg/ml (trastuzumab 0): 76.2%
Inhibition of cell proliferation, 184-A1 (normal breast cell line), 10 µg/ml, 4 days, vs isotype control: 0%
Inhibition of cell proliferation, 231 (breast), 10 µg/ml, 4 days, vs isotype control: 23%
Inhibition of cell proliferation, 435 (breast), 10 µg/ml, 4 days, vs isotype control: 33.7%
Inhibition of cell proliferation, 453 (breast), 10 µg/ml, 4 days, vs isotype control: 24.9%
Inhibition of cell proliferation, 468 (breast), 10 µg/ml, 4 days, vs isotype control: 44.3%
Inhibition of cell proliferation, A172 (brain), 10 µg/ml, 4 days, vs isotype control: 90%
Inhibition of cell proliferation, A549 (lung), 10 µg/ml, 4 days, vs isotype control: 60 to 80%
Inhibition of cell proliferation, BT-474 (breast), 10 µg/ml, 4 days, vs isotype control: 0%
Inhibition of cell proliferation, CaoV3 (ovary), 10 µg/ml, 4 days, vs isotype control: 45.9%
Inhibition of cell proliferation, Colo205 (colon), 10 µg/ml, 4 days, vs isotype control: 27.2%
Inhibition of cell proliferation, Du145 (prostate), 10 µg/ml, 4 days, vs isotype control: 17.1%
Inhibition of cell proliferation, Du-4475 (breast), 10 µg/ml, 4 days, vs isotype control: 2.13%
Inhibition of cell proliferation, H358 (lung), 10 µg/ml, 4 days, vs isotype control: 30.1%
Inhibition of cell proliferation, H460 (lung), 10 µg/ml, 4 days, vs isotype control: 39.7%
Inhibition of cell proliferation, HCC-1419 (breast), 10 µg/ml, 4 days, vs isotype control: 20.9%
Inhibition of cell proliferation, HCC-1954 (breast), 10 µg/ml, 4 days, vs isotype control: 39.3%
Inhibition of cell proliferation, HCT8 (colon), 10 µg/ml, 4 days, vs isotype control: 33%
Inhibition of cell proliferation, HCT15 (colon), 10 µg/ml, 4 days, vs isotype control: 58.7%
Inhibition of cell proliferation, HMEC C (normal human mammary epithelial cells), 10 µg/ml, 4 days, vs isotype control: 0%
Inhibition of cell proliferation, MCF7 (breast), 10 µg/ml, 4 days, vs isotype control: 49.1%
Inhibition of cell proliferation, PC3 (prostate), 10 µg/ml, 4 days, vs isotype control: 11.2%
Inhibition of cell proliferation, SK-N-SH (brain), 10 µg/ml, 4 days, vs isotype control: 40%
Inhibition of cell proliferation, SKBr3 (breast), 10 µg/ml, 4 days, vs isotype control: 26.2%
Inhibition of cell proliferation, SW480 (colon), 10 µg/ml, 4 days, vs isotype control: 30.2%
Inhibition of cell proliferation, SW620 (colon), 10 µg/ml, 4 days, vs isotype control: 48.5%
Inhibition of cell proliferation, SW626 (ovary), 10 µg/ml, 4 days, vs isotype control: 29.7%
Inhibition of cell proliferation, SW1783 (listed under colon), 10 µg/ml, 4 days, vs isotype control: 26.6%
Inhibition of cell proliferation, Skov3 (ovary), 10 µg/ml, 4 days, vs isotype control: 15.1%
Inhibition of cell proliferation, T47D (breast), 10 µg/ml, 4 days, vs isotype control: 30.9%
Substance: anti-β5 integrin subunit monoclonal antibody KN52 (eBiosciences)
